Data published in US20200332324.

Target: T1, E. coli type II fatty acid synthase ACP (AcpP), P0A6A8
T1 chain: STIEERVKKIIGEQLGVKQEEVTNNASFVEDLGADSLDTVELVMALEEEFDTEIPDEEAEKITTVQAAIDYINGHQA

B1: 4'-phosphopantetheinyl transferase Sfp from Bacillus subtilis (protein)
chain: MKIYGIYMDRPLSQEENERFMSFISPEKREKCRRFYHKEDAHRTLLGDVLVRSVISRQYQLDKSDIRFSTQEYGKPCIPDLPDAHFNISHSGRWVICAFDSQPIGIDIEKTKPISLEIAKRFFSKTEYSDLLAKDKDEQTDYFYHLWSMKESFIKQEGKGLSLPLDSFSVRLHQDGQVSIELPDSHSPCYIKTYEVDPGYKMAVCAAHPDFPEDITMVSYEELL
**Q.** For B1, which “ACP phosphopantetheinylation with fluorescently labeled CoA (TAMRA-CoA), SDS-PAGE, UV fluorescence” value is on record?
**A.** protein extracts from all the recombinant cyanobacteria strains constructed here allowed the conversion of E. coli ACP to its fluorescently labeled derivative
